Reference: paper PMC4186817, “Expression, Purification, and Structural Insights for the Human Uric Acid Transporter, GLUT9, Using the Xenopus laevis Oocytes System” (PLoS ONE, 2014)

Target: the molecule itself
Assay: SDS-PAGE with silver stain and Western blot (anti-HA); eluate of the cobalt IMAC column (HRV 3C elution) from DDM-solubilised oocyte membranes, 8% SDS polyacrylamide gel

B1: human GLUT9b (SLC2A9b), recombinant (natural protein, UniProt Q9NRM0-2 1-511, looked up)
chain: MKLSKKDRGEDEESDSAKKKLDWSCSLLVASLAGAFGSSFLYGYNLSVVNAPTPYIKAFYNESWERRHGRPIDPDTLTLLWSVTVSIFAIGGLVGTLIVKMIGKVLGRKHTLLANNGFAISAALLMACSLQAGAFEMLIVGRFIMGIDGGVALSVLPMYLSEISPKEIRGSLGQVTAIFICIGVFTGQLLGLPELLGKESTWPYLFGVIVVPAVVQLLSLPFLPDSPRYLLLEKHNEARAVKAFQTFLGKADVSQEVEEVLAESRVQRSIRLVSVLELLRAPYVRWQVVTVIVTMACYQLCGLNAIWFYTNSIFGKAGIPPAKIPYVTLSTGGIETLAAVFSGLVIEHLGRRPLLIGGFGLMGLFFGTLTITLTLQDHAPWVPYLSIVGILAIIASFCSGPGGIPFILTGEFFQQSQRPAAFIIAGTVNWLSNFAVGLLFPFIQKSLDTYCFLVFATICITGAIYLYFVLPETKNRTYAEISQAFSKRNKAYPPEEKIDSAVTDGKINGRP
modifications: N-glycosylated (shift with PNGase; site not given)
notes: human GLUT9 isoform b (SLC2A9b), cDNA from Origene, amplified with primers from the start codon (ATGAAGCTCAGTAAAAAGGACCGAG) to the stop codon; differs from GLUT9a only in the N-terminal residues; Tag order from the N-terminus: 10xHis, FLAG, HRV 3C (PreScission) site, HA, then GLUT9b; The protein was eluted from the cobalt resin by HRV 3C cleavage, so only the HA tag stays on it (it is …)
  binding result: binds
